These results are taken from US6146878.

The subject of one data set is TyrR (Escherichia coli). In words: cell_activity. The settings on record: beta-galactosidase reporter, M9 + 2 mM L-tyrosine, 37 C; 29.1 without tyrosine; indirect evidence of binding.
Data set [1] deals with T1, TyrR (tyrosine repressor) (Erwinia herbicola) (UniProt Q9ZIB7).
T1 sequence: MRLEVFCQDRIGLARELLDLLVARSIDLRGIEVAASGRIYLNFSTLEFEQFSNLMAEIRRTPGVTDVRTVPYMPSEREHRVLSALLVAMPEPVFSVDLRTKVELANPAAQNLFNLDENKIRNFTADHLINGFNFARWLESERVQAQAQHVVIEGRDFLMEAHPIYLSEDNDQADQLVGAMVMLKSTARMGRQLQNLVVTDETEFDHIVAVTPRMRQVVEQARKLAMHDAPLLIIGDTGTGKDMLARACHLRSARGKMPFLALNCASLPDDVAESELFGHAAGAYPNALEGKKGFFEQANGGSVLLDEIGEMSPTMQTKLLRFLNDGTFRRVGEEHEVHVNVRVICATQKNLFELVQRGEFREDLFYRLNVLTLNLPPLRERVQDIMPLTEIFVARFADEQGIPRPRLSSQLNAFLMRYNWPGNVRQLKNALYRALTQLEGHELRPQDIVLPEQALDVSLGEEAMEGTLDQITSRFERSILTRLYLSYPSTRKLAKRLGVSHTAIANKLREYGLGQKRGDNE
In words: cell_activity. Particulars: beta-galactosidase reporter, M9 + 2 mM L-tyrosine, 37 C; 35.5 without tyrosine; indirect evidence of binding.

As to “tpl promoter/enhancer region (about 480 bp, tpl'-'lac fusion)”, the activity amounted to 324 Miller units with TyrR (Escherichia coli) and 656 Miller units in data set [1].
